# According to patent US10449259B2, “Enzyme-responsive peptide nanofiber compositions and uses thereof” (Cornell University, priority 2015, dated 2019):
# Primed or numbered codes have the meaning given here. *: point of attachment. mPEG2000 = methoxypolyethylene glycol polymer of 2 kDa, conjugated at the peptide N-terminus; FITC = O=C1OC2(c3ccc(O)cc3Oc3cc(O)ccc32)c2ccc(NC(=S)*)cc21; FITC′ = fluorescein isothiocyanate label; mPEG2000(3) = 2 kDa mPEG at N-terminus; Cy5.5 = Cy5.5 fluorophore
# Legend:
# MDA-MB-468 tumors = assay: In vivo fluorescence monitoring of distribution after tail vein injection, MDA-MB-468 tumors; design: species or system nude mice; conditions: 0.5 nmol of fluorophore content, 48 hours post-injection
# Protocol: Similar results were observed when the animals were injected with GSH-NFP nanofibers having a homogenous length of 400 nm. FIGS. 16A and 16B (white arrows).
# [1] = tested on: HER2-positive breast cancer (BT474) cells; assay: CellTiter-Glo luminescent cell viability (cytotoxicity) assay, BT474; assay type: cell-based, human; conditions: 5 days of incubation, concentration according to DM1 content, mean ± SD, triplicate
# Protocol: Briefly, cells were seeded on a 96-well plate (2×10^3/well for MDA-MB-231 and MDA-MB-468 and 2×10^4/well for BT474) and were allowed to stabilize overnight. […] After 5 days of incubation, CellTiter-Glo reagent (100 μL) was added to each well. The generated oxyluciferin was quantified for emitted luminescence using a microplate reader (Tecan US Inc., Morrisville, N.C.). […] Statistical analyses were performed using Graph Pad Prism 6.0 software. All data were normalized to the values obtained with the untreated control cells, and half maximal inhibitory concentrations (IC50) were calculated by fitting the obtained data to a sigmoidal curve.
# The cytotoxicity of the DM1-loaded nanofibers was evaluated using various human HER2-positive breast cancer (BT474) and triple-negative breast cancer (MDA-MB-231 and MDA-MB-468) cell lines as ex vivo models. A luminescent cell viability assay was employed to determine the cell viability through quantification of the adenosine triphosphate (ATP) produced by metabolically active cells. […] Because the cell killing of DM1 is slow, the assays were performed following the incubation of the tested samples for 5 days, as previously described in Junttila et al., Breast Cancer Res. Treat.
# [2] = tested on: triple-negative breast cancer MDA-MB-468 cells; assay: CellTiter-Glo luminescent cell viability (cytotoxicity) assay, MDA-MB-468; assay type: cell-based, human; conditions: for IC50: 5 days of incubation, concentration according to DM1 content, mean ± SD, triplicate; for toxicity of naked nanofibers: below a concentration of 1 μM
# Protocol: (§1) The cytotoxicity of drug-loaded NFP1 and NFP2 nanofibers was assessed using the CellTiter-Glo Luminescent Cell Viability Assay (Promega, Madison, Wis.) as previously described in Junttila et al., Breast Cancer Res. Treat. 128 (2), 347-356 (2011). Briefly, cells were seeded on a 96-well plate (2×10^3/well for MDA-MB-231 and MDA-MB-468 and 2×10^4/well for BT474) and were allowed to stabilize overnight. […] After 5 days of incubation, CellTiter-Glo reagent (100 μL) was added to each well. The generated oxyluciferin was quantified for emitted luminescence using a microplate reader (Tecan US Inc., Morrisville, N.C.). All experiments were performed in triplicate, and the results were presented as mean±standard deviation. Statistical analyses were performed using Graph Pad Prism 6.0 software. All data were normalized to the values obtained with the untreated control cells, and half maximal inhibitory concentrations (IC50) were calculated by fitting the obtained data to a sigmoidal curve.
# (§2) The cytotoxicity of the DM1-loaded nanofibers was evaluated using various human HER2-positive breast cancer (BT474) and triple-negative breast cancer (MDA-MB-231 and MDA-MB-468) cell lines as ex vivo models. A luminescent cell viability assay was employed to determine the cell viability through quantification of the adenosine triphosphate (ATP) produced by metabolically active cells. This assay offered more accurate and reproducible results compared to the widely used MTS assay (data not shown). Because the cell killing of DM1 is slow, the assays were performed following the incubation of the tested samples for 5 days, as previously described in Junttila et al., Breast Cancer Res. Treat. 128 (2), 347-356 (2011).
# [3] = tested on: triple-negative breast cancer MDA-MB-231 cells; assay: CellTiter-Glo luminescent cell viability (cytotoxicity) assay, MDA-MB-231; assay type: cell-based, human; conditions: for IC50: 5 days of incubation, concentration according to DM1 content, mean ± SD, triplicate; for toxicity of naked nanofibers: below a concentration of 1 μM
# Protocol: as §1, §2
# [4] = target: T1, CathB (purified from bovine spleen) (Bos taurus, UniProt P07688); assay: Enzyme digestion study with CathB (HPLC, MALDI-TOF, TEM, fluorescence); assay type: biochemical; conditions: for CathB digestion, peptide fragments by HPLC: 50 μM peptide content, sodium acetate buffer pH 4, 24 hours; for CathB digestion, peptide fragments by HPLC / fluorescence change of quenched nanofibers after CathB digestion: CathB 0.3 U; for morphological change in response to CathB digestion (TEM): 24 hour incubation with the enzyme; for fluorescence change of quenched nanofibers after CathB digestion: 0.1 μM peptide content, pH 4, 24 hours
# T1 construct: CathB (purified from bovine spleen); purchased EMD Millipore (Billerica, Mass.); host or cells: bovine spleen (tissue-purified)
# Protocol: NFP1 and NFP2 nanofibers (50 μM of peptide content) were incubated with CathB (0.3 U) in sodium acetate buffer (50 μM; pH 4). Nanofibers incubated with buffer only were used as the negative controls. After 24 hours, the samples were taken out for TEM, rp-HPLC, and MALDI-TOF analysis.
# Intact or digested NFP1 and NFP2 nanofibers (10 μM of peptide content) in buffer (20 μL) were transferred onto Formvar/carbon-coated 400 mesh copper grids (Electron Microscopy Sciences, Hatfield, Pa.). Excess nanofibers were blotted off using filter paper and the samples were stained with 0.5% (v/v) uranyl formate solution (20 μL). After drying at room temperature, the grids were examined under TEM (JEOL JEM-1400 LaB6 TEM operating at 120 Kv).
compound,measurement,setting,value
Cn1cnc(N)c2ncnc1-2 [3MA],tumoral uptake relative to Cy5.5,MDA-MB-468 tumors,increased tumoral uptake
"COc1cc2cc(c1Cl)N(C)C(=O)C[C@H](OC(=O)[C@H](C)N(C)C(=O)CCS)[C@]1(C)O[C@H]1[C@H](C)[C@@H]1C[C@@](O)(NC(=O)O1)[C@H](OC)/C=C/C=C(\C)C2 [DM1, N2′-deacetyl-N2′-(3-mercapto-1-oxopropyl)-maytansine, reference compound]",IC50,[1],68.1 ± 5 nM
same,IC50,[2],21.9 ± 4.1 nM
same,IC50,[3],35.4 ± 4.2 nM
"FITC-NFP1: mPEG2000, hexalysine motif, self-assembling domain KLDLKLDLKLDLK and FITC fluorophore (mPEG2000-KKKKKKKLDLKLDLKLDLK(FITC)-NH2; not fully specified)","CathB digestion, peptide fragments by HPLC",[4],multiple peptide fragments
same,morphological change in response to CathB digestion (TEM),[4],disintegrated and became shorter in length
"FITC-NFP2: mPEG2000, self-assembling domain KLDLKLDLKLDLK and FITC fluorophore (mPEG2000-KLDLKLDLKLDLK(FITC)-NH2; not fully specified)","CathB digestion, peptide fragments by HPLC",[4],only one fragment
same,morphological change in response to CathB digestion (TEM),[4],assembled into an interfibril network
NFP1: naked nanofiber of mPEG peptides with hexalysine motif and self-assembling domain KLDLKLDLKLDLK (mPEG2000-KKKKKKKLDLKLDLKLDLK(FITC′)-NH2; not fully specified),sensitivity to CathB digestion,[4]; compared to NFP2,increased sensitivity to CathB digestion
same,toxicity of naked nanofibers at high concentration,[2]; 10 μM,significant cell growth inhibition
same,toxicity of naked nanofibers,[2],nontoxic
same,toxicity of naked nanofibers at high concentration,[3]; 10 μM,significant cell growth inhibition
same,toxicity of naked nanofibers,[3],nontoxic
"NFP2: naked nanofiber of mPEG peptides with self-assembling domain KLDLKLDLKLDLK, no hexalysine motif (mPEG2000-KLDLKLDLKLDLK(FITC′)-NH2; also: mPEG, site not given here)",toxicity of naked nanofibers,[2],nontoxic
same,toxicity of naked nanofibers,[3],nontoxic
T-DM1 [reference compound],IC50,[2],65.2 ± 4.4 nM
same,IC50,[3],68.9 ± 3.8 nM
"mPEG2000 KLDLKLDLKLDLK-Cy5.5 ({mPEG2000(3)}-KLDLKLDLKLDLK-{Cy5.5}) [Cy5.5-NFP2, optically quenched nanofiber prepared using Cy5.5-conjugated peptide constructs only]",fluorescence change of quenched nanofibers after CathB digestion,[4],only slightly increased
"mPEG2000-KKKKKKKLDLKLDLKLDLK-Cy5.5 (mPEG2000-KKKKKKKLDLKLDLKLDLK-{Cy5.5}) [Cy5.5-NFP1, optically quenched nanofiber prepared using Cy5.5-conjugated peptide constructs only]",fluorescence change of quenched nanofibers after CathB digestion,[4],recovery of the fluorescence signal
